± gives the standard deviation of the averaged measurements.
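Further: ATP exposure 15 min at 22 °C before imaging.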

The series concerns ATP. Briefly: switch fluorescence ratio, 500 uM ATP over buffer (Cy3 cluster intensity, sum of 5 cycles each) (fold (ratio)); higher = stronger signal-on switching upon ATP binding; sequences stand for … in TCGTCGGCAGCGTCAGATGTGTATAAGAGACAGTTTTTTTTTTTTTTTTTTTTTTTTT…TC. The note with it: aptamer strand: ATP DNA aptamer (quencher-CACCTGGGGGAGTATTGCGGAGGAAGG + anchor), 100 nM annealed; ATP concentration: 500 uM. In outline:
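The quencher-labelled ATP aptamer, at 100 nM, was annealed to Cy3-labelled switching-strand clusters on a modified Illumina MiSeq flow-cell. The clusters were imaged in selection buffer, then after 15 min with 500 uM ATP at 22 °C, and this buffer/ATP cycle ran five times with NaOH stripping and re-annealing between runs. Per-cluster fluorescence ratios, summed target-cycle over summed buffer-cycle Cy3 intensity, were averaged per switch-domain sequence. Clusters outside 100-1000 RFU were excluded.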
Consider AAAGGGGGT, for which the switch fluorescence ratio was found to be 1.01 ± 0.026.

Consider CCAAGGCGAT, for which the switch fluorescence ratio stood at 2.33 ± 1.8.

On to TATGTGGGTG, for which the switch fluorescence ratio was 1.01 ± 0.035.

TAAGTACGTG: the switch fluorescence ratio stood at 1.18 ± 0.035.

With GTTGCCGGTT, the switch fluorescence ratio turned out to be 1.026 ± 0.008.

As to AAGCGGGCAG, the switch fluorescence ratio was 1 ± 0.02.

AGCTTTACGG: the switch fluorescence ratio came out at 1.04 ± 0.019.

Turning to TATACTCAGC, the switch fluorescence ratio came to 1.03 ± 0.014.

Consider AAGTGTAGAG, for which the switch fluorescence ratio amounted to 1.027 ± 0.0092.

For the sequence TCAATCGGGT, the switch fluorescence ratio came to 0.995 ± 0.053.

For GGATGGGGGC, the switch fluorescence ratio was found to be 0.992 ± 0.023.

As to GTCAGTGGGC, the switch fluorescence ratio was 0.998 ± 0.0052.

Consider CCATAAAGGG, for which the switch fluorescence ratio turned out to be 1.07 ± 0.098.

Turning to TGTATTTTGT, the switch fluorescence ratio turned out to be 0.976 ± 0.022.

In the case of GACGGGGGGG, the switch fluorescence ratio came out at 1 ± 0.023.

With TTCTTTATCG, the switch fluorescence ratio turned out to be 1.02 ± 0.073.

For TCGATAGTTG, the switch fluorescence ratio turned out to be 0.961 ± 0.054.

Turning to ACCGACGGGA, the switch fluorescence ratio turned out to be 2.72 ± 2.

GTGGTTATGC: the switch fluorescence ratio was found to be 1.02 ± 0.033.

For the sequence TCTGGTGTTT, the switch fluorescence ratio came out at 0.986 ± 0.024.

Take CCCCGTTTCG: the switch fluorescence ratio is 1.08 ± 0.046.

Turning to TCATAACTTT, the switch fluorescence ratio turned out to be 0.984 ± 0.017.

On to ATTTTAATGC, for which the switch fluorescence ratio was 1.018 ± 0.0019.

For AGAAAAACAT, the switch fluorescence ratio was found to be 1.034 ± 0.0073.

With AGCGAAATCA, the switch fluorescence ratio was determined as 1 ± 0.078.

On to AATTTTAGGT, for which the switch fluorescence ratio was 0.959 ± 0.015.

Take GCTCTGAGGG: the switch fluorescence ratio stood at 1.056 ± 0.009.

Turning to GCTGTAGGGC, the switch fluorescence ratio was 1.015 ± 0.0034.

As to AGTATGAGGT, the switch fluorescence ratio was found to be 0.98 ± 0.012.

Consider CGGGTATATT, for which the switch fluorescence ratio worked out at 1.01 ± 0.032.

On to CAAAAAGCAC, for which the switch fluorescence ratio was determined as 1.06 ± 0.036.

Regarding TGGGTAGGGG, the switch fluorescence ratio amounted to 0.985 ± 0.025.

Consider TCGGAGAGGG, for which the switch fluorescence ratio amounted to 0.974 ± 0.037.

On to ATAGGATTTA, for which the switch fluorescence ratio was 0.989 ± 0.013.

As to TTTCGTCAGG, the switch fluorescence ratio came out at 0.997 ± 0.038.

Regarding TCATATACGA, the switch fluorescence ratio was 1.09 ± 0.015.

As to CAAAATTCCG, the switch fluorescence ratio came to 1.08 ± 0.017.

Regarding CATTATAGGC, the switch fluorescence ratio is 1.004 ± 0.002.

On to GATATTTTGG, for which the switch fluorescence ratio was found to be 0.982 ± 0.025.

As to GGCTGACCGG, the switch fluorescence ratio was 1 ± 0.048.

As to TTTCGGTTGG, the switch fluorescence ratio amounted to 0.999 ± 0.032.

Regarding TAGGGTGCGG, the switch fluorescence ratio amounted to 1.03 ± 0.021.

In the case of CGGTGGTCAG, the switch fluorescence ratio was 1.01 ± 0.0076.

GGAAATATCG: the switch fluorescence ratio is 0.989 ± 0.021.

In the case of CATAGGTTTT, the switch fluorescence ratio worked out at 1.03 ± 0.066.

In the case of GGTTAGGAAG, the switch fluorescence ratio is 1.005 ± 0.0037.

For the sequence TACGAAGGGT, the switch fluorescence ratio was 0.987 ± 0.009.

With TAAGTAGATT, the switch fluorescence ratio amounted to 0.995 ± 0.018.

For GGGGGTGCTG, the switch fluorescence ratio stood at 0.993 ± 0.025.

Turning to CTGAGCCGGA, the switch fluorescence ratio worked out at 1.08 ± 0.16.

Turning to ATGTATTCGC, the switch fluorescence ratio was determined as 0.983 ± 0.014.

Take GAGAGTGAAT: the switch fluorescence ratio came to 1.01 ± 0.081.

For the sequence CGGGGGCGCT, the switch fluorescence ratio came to 1.02 ± 0.013.

As to GGGGGACTTT, the switch fluorescence ratio amounted to 1.08 ± 0.08.

Consider GTGCCATGTT, for which the switch fluorescence ratio was found to be 0.9816 ± 0.0083.

For GGTCGCGGGG, the switch fluorescence ratio was 1.03 ± 0.027.

ATCGGATTGG: the switch fluorescence ratio is 1.03 ± 0.072.

Regarding CGGTGTATTT, the switch fluorescence ratio came to 0.9547 ± 0.0037.

For TCGGCGTTCA, the switch fluorescence ratio is 1.02 ± 0.02.

With GGTGTCTGGG, the switch fluorescence ratio turned out to be 0.984 ± 0.074.

For the sequence CGGCAAGTGG, the switch fluorescence ratio turned out to be 1.05 ± 0.031.

For GCTTGATGAA, the switch fluorescence ratio worked out at 1.034 ± 0.0013.

In the case of TCACGAATTT, the switch fluorescence ratio came out at 1 ± 0.014.

Turning to CTCTGGGGTC, the switch fluorescence ratio amounted to 1.05 ± 0.048.

For ATATCTTAGT, the switch fluorescence ratio was 1.017 ± 0.00089.

As for TTCGACGAGG, the switch fluorescence ratio is 0.996 ± 0.022.

As to CGCGGGTAAC, the switch fluorescence ratio was determined as 1.036 ± 0.0077.

As to TTACTAGGCA, the switch fluorescence ratio stood at 1.01 ± 0.012.

For TGGGTAGTAT, the switch fluorescence ratio is 0.977 ± 0.012.

Regarding TGGGGACAAT, the switch fluorescence ratio is 0.987 ± 0.018.

With CAAGACTTCG, the switch fluorescence ratio was determined as 1.01 ± 0.052.

For GCCGCGGGGT, the switch fluorescence ratio was 1 ± 0.0017.

For the sequence TGGGGGGGAA, the switch fluorescence ratio is 0.999 ± 0.021.

As for TAGTGGAAAA, the switch fluorescence ratio turned out to be 1.02 ± 0.077.

Consider TGGGGTAGAG, for which the switch fluorescence ratio amounted to 0.97 ± 0.041.

Take TGCTAGGCG: the switch fluorescence ratio was determined as 1.02 ± 0.032.

As for ATAGGGCACA, the switch fluorescence ratio amounted to 1.08 ± 0.015.

As to CAGATCGGTT, the switch fluorescence ratio came out at 0.964 ± 0.014.

These data come from the supplement of paper PMC10126150.
